Publication PMC5643300

Columns and labels:
[1] = molecular target: MOSP expressed in E. coli with a PelB signal sequence (Treponema denticola); experiment: native gel or EMSA; BN-PAGE and immunoblot of the 2% DDM extract of the outer membrane fraction of E. coli expressing PelB-MOSP
[2] = molecular target: MOSP^C, C-terminal domain of the major outer sheath protein (recombinant, refolded) (Treponema denticola); experiment: SEC + other: negative-stain TEM of nanodiscs; MOSP^C incorporated into small D7 DMPC nanodiscs, S200 column, Tris-NaCl buffer pH 7.5; peaks examined by SDS-PAGE and TEM
[3] = molecular target: MOSP^C, C-terminal domain of the major outer sheath protein (recombinant, refolded) (Treponema denticola); experiment: negative-stain TEM of nanodiscs; MOSP^C refolded in DDM and incorporated into large MSP1E3D1 (E3D1) DMPC nanodiscs; SEC peak fractions, uranyl formate stain, averaged images
[4] = molecular target: major outer sheath protein, native outer membrane conformer (Treponema denticola ATCC 35405 (endogenous)); experiment: SDS-PAGE without boiling, immunoblot; 2% DDM-solubilized pellet of sonicated T. denticola, run with and without boiling, anti-MOSP^Fl; TX-114 phase partitioning of the same material
[5] = molecular target: major outer sheath protein, native outer membrane conformer (Treponema denticola ATCC 35405 (endogenous)); experiment: SDS-PAGE without boiling, immunoblot; NP-40 supernatant (OM conformer) and TX-114 aqueous phase (periplasmic conformer) of T. denticola in Laemmli buffer, with and without boiling; antisera to MOSP^Fl, PrtP, PrcA1, PrcA2, PrcB
[6] = molecular target: major outer sheath protein, native periplasmic conformer (Treponema denticola ATCC 35405 (endogenous)); experiment: SDS-PAGE without boiling, immunoblot; 2% DDM-solubilized pellet of sonicated T. denticola, run with and without boiling, anti-MOSP^Fl; TX-114 phase partitioning of the same material
[7] = molecular target: major outer sheath protein, native periplasmic conformer (Treponema denticola ATCC 35405 (endogenous)); experiment: SDS-PAGE without boiling, immunoblot; NP-40 supernatant (OM conformer) and TX-114 aqueous phase (periplasmic conformer) of T. denticola in Laemmli buffer, with and without boiling; antisera to MOSP^Fl, PrtP, PrcA1, PrcA2, PrcB

With “MOSP expressed in E. coli with a PelB signal sequence (natural protein)” the stoichiometry N [1] was 3.

Substance “MOSP^C, C-terminal domain of the major outer sheath protein (recombinant, refolded) (domain or fragment)” has a stoichiometry N [2] of 3 and a stoichiometry N [3] of 3.

In the case of “major outer sheath protein, native outer membrane conformer (natural protein)”, the stoichiometry N [4] is reported as 3 and the stoichiometry N [5] is reported as 3.

In the case of “major outer sheath protein, native periplasmic conformer (natural protein)”, the stoichiometry N [6] is reported as 3 and the stoichiometry N [7] is reported as 3.
